Results: PMC4772501 (The Journal of Cell Biology, 2016)

T1: Cdc3 (S. cerevisiae, UniProt P32457 1-520)
T1 sequence: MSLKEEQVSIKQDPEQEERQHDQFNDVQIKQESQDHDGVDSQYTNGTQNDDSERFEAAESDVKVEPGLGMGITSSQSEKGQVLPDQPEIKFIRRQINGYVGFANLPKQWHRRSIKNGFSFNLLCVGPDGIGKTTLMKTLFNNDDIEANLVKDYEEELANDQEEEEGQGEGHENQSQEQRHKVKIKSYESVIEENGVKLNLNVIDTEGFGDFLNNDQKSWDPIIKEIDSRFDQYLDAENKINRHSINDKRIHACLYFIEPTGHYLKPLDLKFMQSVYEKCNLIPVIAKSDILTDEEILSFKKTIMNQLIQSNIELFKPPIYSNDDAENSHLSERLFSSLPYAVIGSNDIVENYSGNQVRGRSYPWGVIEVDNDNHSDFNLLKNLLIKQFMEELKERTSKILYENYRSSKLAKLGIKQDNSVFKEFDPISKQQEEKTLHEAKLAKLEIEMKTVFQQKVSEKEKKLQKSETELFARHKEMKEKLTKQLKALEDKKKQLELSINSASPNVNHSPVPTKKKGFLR

B1: Cdc10 (natural protein)
chain: MDPLSSVQPASYVGFDTITNQIEHRLLKKGFQFNIMVVGQSGLGKSTLINTLFASHLIDSATGDDISALPVTKTTEMKISTHTLVEDRVRLNINVIDTPGFGDFIDNSKAWEPIVKYIKEQHSQYLRKELTAQRERFITDTRVHAILYFLQPNGKELSRLDVEALKRLTEIANVIPVIGKSDTLTLDERTEFRELIQNEFEKYNFKIYPYDSEELTDEELELNRSVRSIIPFAVVGSENEIEINGETFRGRKTRWSAINVEDINQCDFVYLREFLIRTHLQDLIETTSYIHYEGFRARQLIALKENANSRSSAHMSSNAIQR
B2: Spr28 (natural protein)
chain: MFPMKDHSALEQHTLSRDELRRRKGYKKGLQLSILLLGEKGSGKSTFLNNLCGQDISLSDGDYDDDDDKVTNNVTPENGNAIEDIDPGYKTAHLSPGLKLVTRRVYLNDELGVPITLDIILFPGCGDNVDNSQSSVVIKNYLDQQFANVLKEEVRIKRNTKETDGRPHVCLYFLKSTPRGVKKFDIELMKTICDKVNLIPIIPKADGLTETELNLHKDIVRQEISQNNIRVFDFKSDTLGETLALYDMDIDSSSAKSKYDNDTKIKEISPFAIVCSKTFNKNSENRVEHIRTYEWGSLVVEDQNTSDFIYLKAILLGSHLQELKDVTNNVLYENYRAKVLTEKKNNYDIPNYSYIDETSRGSVSNVSTRRNSASRTLGNPDTNDENAYQIHKEIDEKNRIIEDYQRKIDLLEKMLAAPHQNKV
B3: (His)6Spr3 (natural protein)
chain: MKSKGSRLSTDCPVEFPKIVSGFAEEVKIRRQSSQGQYAVDSHPPKSPELKHRRQRSSSFVNGKCRNRDLPLLDNKKAQEINTNSHGQDIGIKNLPRQRELLNAKNGIDFTLMVAGQSGLGKTTFINSLFSTSLIDDDIKENKPIIRYKSIVEGDGTHLNFNVIDTPGFGNNMDNAFTWRTMVNYIDEEIRSYIFQEEQPDRTKMVDNRVHCCLYFLRPSNKGIDTLDVVTMKKLAKRVNLIPVIAKSDLLTKEELKNFKTQVREIIRVQDIPVCFFFGDEVLNATQDIFQKYPFSIIASNEYIFNEKGEKVKGRQYKWGAVDIENEKYCDFKILQKTIFDWNLIDLVESTEDYYEKCRSEMLRTRLLKARDCLTTKSVDITEEQRKFLEEEMNFDEIEENKLKNYKCYEIINKTVMDKVATEWDPEFITRQLEAKKKFNELSNREISKFRDWKKSLFMEQENFNQEIEQLNHKLENLQLECQDLEYKLLIGKSSNSHSTDSATLVNVHIKR

Key:
[1] = biological target: the molecule itself; assay: negative-stain EM, single-particle class averages
Cdc3 [2] = biological target: T1, Cdc3; assay: negative-stain EM, single-particle class averages
(His)6Spr3 [3] = biological target: B3; assay: pull-down
(His)6Spr3 [4] = biological target: B3; assay: negative-stain EM, single-particle class averages
Cdc3 [5] = biological target: T1, Cdc3; assay: pull-down

Binder: B1
binding result [1]: binds | binding result (Cdc3 [2]): binds | binding result ((His)6Spr3 [3]): binds

Binder: B2
binding result ((His)6Spr3 [4]): binds

Binder: B3
binding result (Cdc3 [5]): binds
